Changes are numbered by the printed parent chain. In names and notes the source's numbering stands. Several values for one entry are separate records, joined by “and”; a condition that tells them apart may be missing. Equal values may be shown once. Read-outs that look alike come from different tables or passages of the source.
What was measured:
[1] = biological target: mCherry (purified, His-tag cleaved off); experiment: BLI (Octet RED96e); His-tagged nanobody on Ni-NTA sensor, tagless mCherry in solution; no illumination
[2] = biological target: mCherry (purified, His-tag cleaved off); experiment: OCTET BLI; His-tagged nanobody on Ni-NTA biosensor, tag-free mCherry in solution
[3] = biological target: iLID-CAAX; experiment: cytosol-to-membrane translocation in NIH3T3 cells
[4] = biological target: iLID-CAAX; experiment: cytosol-to-membrane redistribution in NIH3T3 cells
[5] = biological target: T1, His6-YFP-SH2 (human, UniProt P00519 112-232); experiment: pull-down on Co2+ agarose beads with His6-YFP-SH2, crude chimera lysate, light or dark, SDS-PAGE
T1 construct: domain: SH2 domain; also called 6xHis-YFP-protein fusion
T1 sequence (looked up): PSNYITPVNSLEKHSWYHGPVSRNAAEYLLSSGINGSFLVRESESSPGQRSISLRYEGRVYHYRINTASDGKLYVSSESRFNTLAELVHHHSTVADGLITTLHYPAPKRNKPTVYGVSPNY
Method: (§1) The His6-YFP-SH2 supernatant was then mixed with 4.5 mL of a 50% suspension of Co-charged agarose resin (Talo®), previously equilibrated in Binding buffer, and incubated at 4° C., rocking for 45 min. The suspension was sedimented by gravity and the supernatant discarded. The beads were then thoroughly washed with Binding buffer with approximately 50 times the resin or column volume. The beads (now with His6-YFP-SH2 bound) were then finally resuspended in Binding buffer to a total volume of 13.5 mL. The bead suspension was equally divided into 9 conical tubes of 15 mL (having each 1.5 mL of the bead suspension). Four of these tubes were used for experiments under blue light with LED panels (450 nm and intensity of 45 μmol/m²/s) while the other four were used for experiments in the dark (wrapped in aluminum foil). Experiments were performed in a dark room and red light was used occasionally for visualization purposes. The remaining tube was left as a control for His6-YFP-SH2 binding. Samples of 2.5 mL of bacterial clarified lysates containing either the monobody HA4 supernatant or each one of the chimeras were added to separate tubes of resin. The mixtures were then incubated for 45 minutes (at 4° C. and constant vertical rotation of 20 rpm) under blue light or dark conditions. […]

[6] = biological target: T1, His6-YFP-SH2; experiment: as above; remark: listed apart in the source
Method: as §1

[7] = biological target: T1, His6-YFP-SH2; experiment: pull-down on His6-YFP-SH2 cobalt beads, SDS-PAGE densitometry
Method: as §1

[8] = biological target: T2, YFP-SH2 (human, UniProt P00519 112-232); experiment: BLI; Kd of OptoMBV416L (light) against Kd of OptoMBC450V (dark)
T2 construct: domain: SH2 domain; also called SH2-tagged YFP; EZ-L703
T2 sequence (looked up): T1 sequence (looked up)
Method: (§2) Ni-NTA sensors (ForteBio) were first equilibrated using Buffer A for 10 minutes prior the measurement. A volume of 200 μL of Buffer A or protein solutions (previously dialyzed with Buffer A when needed) was added to clear, 96-well plates. During the experimental run, the Ni-NTA sensors were first immersed in Buffer A to record the baseline. […] The sensors were then transferred back into Buffer A to remove unbound protein. […] To measure the unbinding rate constant (koff), the sensors were then moved to wells containing Buffer A to trigger dissociation of YFP-SH2. To measure binding kinetics of the light state, the lid of the Octet remained open during the measurement and a blue LED panel was held above the 96-well plate, maintaining constant blue illumination for the duration of the experiment. […] The raw binding and unbinding data were simultaneously fit to models of the binding and unbinding reactions:

[9] = biological target: T2, YFP-SH2; experiment: BLI; His-tagged binder on Ni-NTA sensor, YFP-SH2 in solution; light conformation; average of three measurements
Method: as §2

[10] = biological target: T2, YFP-SH2; experiment: BLI; binder on Ni-NTA sensor, YFP-SH2 in solution; lit conformation, 450 nm light
Method: as §2

[11] = biological target: T2, YFP-SH2; experiment: BLI; binder on Ni-NTA sensor, YFP-SH2 in solution; lit conformation, ambient light
Method: as §2

[12] = biological target: T2, YFP-SH2; experiment: BLI; SUMO-tagged binder on Ni-NTA sensor, YFP-SH2 in solution; lit conformation, ambient light
Method: as §2

[13] = biological target: T2, YFP-SH2; experiment: LCAC in batch, Talon resin; share of the resin-bound target eluted by blue light
Method: (§3) After elution, beads were washed with imidazole to recover any remaining protein bound to the beads in order to estimate the capacity and yields of the resin.
(§4) The Resin was rotated in 50 mL conical tubes (covered with aluminum foil) at room temperature for 20 minutes and then poured in 20 mL BioRad glass Econo-Columns and washed with Buffer A (50 column volumes). […] The mixture was then vertically rotated gently for 45 minutes in 15 ml conical tubes.

[14] = biological target: T3, SH2-PDC1 (human; Saccharomyces cerevisiae); experiment: as above
T3 construct: No His tag; also called SH2-tagged Pdc1p; EZ-L886
T3 chain: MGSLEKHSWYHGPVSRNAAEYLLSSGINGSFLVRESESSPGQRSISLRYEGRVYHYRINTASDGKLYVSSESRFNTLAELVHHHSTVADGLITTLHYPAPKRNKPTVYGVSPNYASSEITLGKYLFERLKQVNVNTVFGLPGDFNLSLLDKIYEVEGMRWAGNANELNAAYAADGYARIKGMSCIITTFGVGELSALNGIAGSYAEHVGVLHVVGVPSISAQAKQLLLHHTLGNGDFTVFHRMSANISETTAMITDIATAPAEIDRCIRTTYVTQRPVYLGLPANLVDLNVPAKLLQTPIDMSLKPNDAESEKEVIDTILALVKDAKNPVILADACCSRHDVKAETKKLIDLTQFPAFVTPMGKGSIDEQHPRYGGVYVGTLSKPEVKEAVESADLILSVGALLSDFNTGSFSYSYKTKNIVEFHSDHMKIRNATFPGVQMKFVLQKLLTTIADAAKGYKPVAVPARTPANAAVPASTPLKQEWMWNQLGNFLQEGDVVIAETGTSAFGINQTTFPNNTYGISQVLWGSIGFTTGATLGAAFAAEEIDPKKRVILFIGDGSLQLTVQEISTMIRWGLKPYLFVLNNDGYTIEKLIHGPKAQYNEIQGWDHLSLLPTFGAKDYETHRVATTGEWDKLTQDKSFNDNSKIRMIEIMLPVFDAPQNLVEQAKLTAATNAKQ
Method: as §3, §4

[15] = biological target: T2, YFP-SH2; experiment: LCAC in batch; His-tag bound OptoMB on Talon cobalt resin, target from crude E. coli lysate bound in the dark
Method: as §3, §4

[16] = biological target: T3, SH2-PDC1; experiment: as above
Method: as §3, §4

[17] = biological target: T2, YFP-SH2; experiment: BLI; binder on Ni-NTA sensor, YFP-SH2 in solution; ambient light
[18] = biological target: T2, YFP-SH2; experiment: BLI (Octet RED96e); His-tagged binder on Ni-NTA sensor, YFP-SH2 in solution
[19] = biological target: T2, YFP-SH2; experiment: BLI; lit-state against dark-state OptoMB variants
Method: as §2

[20] = biological target: T2, YFP-SH2; experiment: BLI; His-tagged binder on Ni-NTA sensor, YFP-SH2 in solution; light conformation
Method: as §2

[21] = biological target: T2, YFP-SH2; experiment: BLI; binder on Ni-NTA sensor, YFP-SH2 in solution; dark conformation, ambient light
Method: as §2

[22] = biological target: T2, YFP-SH2; experiment: BLI; binder on Ni-NTA sensor, YFP-SH2 in solution; dark conformation, 450 nm light
Method: as §2

[23] = biological target: T2, YFP-SH2; experiment: BLI; His-tagged binder on Ni-NTA sensor, YFP-SH2 in solution; dark conformation; average of three measurements
Method: as §2

Molecule: LaM8 anti-mCherry nanobody (His-tagged, purified) (VHH)
- Kd [1]: 230 nM
- koff [1]: 0.018 s⁻¹
- kon [1]: 76000 M⁻¹ s⁻¹
- Kd [2]: 322 nM
- koff [2]: 0.02 s⁻¹
- kon [2]: 75200 M⁻¹ s⁻¹

Molecule: BFP-SSPB-SOScat
- change in cytosolic intensity between light and dark [3]: 60%
- change in cytosolic intensity between light conditions [4]: 60%

B1: HA4-AsLOV2 chimera, SG65 insertion (designed binder)
chain: GSSVSSVPTKLEVVAATPTSLLISWDAPMSSSSVYYYRITYGETGGNSPVQEFTVPYSSSTATISGLERIEKNFVITDPRLPDNPIIFASDSFLQLTEYSREEILGRNCRFLQGPETDRATVRKIRDAIDNQTEVTVQLINYTKSGKKFWNLFHLQPMRDQKGDVQYFIGVQLDGTEHVRDAAEREGVMLIKKTAENIDEAAGGLSPGVDYTITVYAWGEDSAGYMFMYSPISINYRTC
- binding result [5]: no binding

B2: HA4-AsLOV2 chimera, SA84 insertion (designed binder)
chain: GSSVSSVPTKLEVVAATPTSLLISWDAPMSSSSVYYYRITYGETGGNSPVQEFTVPYSSSTATISGLSPGVDYTITVYAWGEDSGLERIEKNFVITDPRLPDNPIIFASDSFLQLTEYSREEILGRNCRFLQGPETDRATVRKIRDAIDNQTEVTVQLINYTKSGKKFWNLFHLQPMRDQKGDVQYFIGVQLDGTEHVRDAAEREGVMLIKKTAENIDEAAGAGYMFMYSPISINYRTC
- binding result [6]: no binding

B3: HA4-AsLOV2 chimera, SS58 insertion, untagged (OptoMB) (designed binder)
chain: GSSVSSVPTKLEVVAATPTSLLISWDAPMSSSSVYYYRITYGETGGNSPVQEFTVPYSGLERIEKNFVITDPRLPDNPIIFASDSFLQLTEYSREEILGRNCRFLQGPETDRATVRKIRDAIDNQTEVTVQLINYTKSGKKFWNLFHLQPMRDQKGDVQYFIGVQLDGTEHVRDAAEREGVMLIKKTAENIDEAAGSSTATISGLSPGVDYTITVYAWGEDSAGYMFMYSPISINYRTC
notes: Used as crude E. coli extract in the pull-down screen; also called alphaSH2 OptoMonobody; EZ-L706
- band intensity, dark against light [7]: ~2.1 fold

B4: HA4-AsLOV2 chimera, NS47 insertion (designed binder)
chain: GSSVSSVPTKLEVVAATPTSLLISWDAPMSSSSVYYYRITYGETGGNGLERIEKNFVITDPRLPDNPIIFASDSFLQLTEYSREEILGRNCRFLQGPETDRATVRKIRDAIDNQTEVTVQLINYTKSGKKFWNLFHLQPMRDQKGDVQYFIGVQLDGTEHVRDAAEREGVMLIKKTAENIDEAAGSPVQEFTVPYSSSTATISGLSPGVDYTITVYAWGEDSAGYMFMYSPISINYRTC
- binding result [6]: no binding

B5: OptoMBV416L (designed binder)
chain: HHHHHHGSGSGSDQEAKPSTEDLGDKKEGEYIKLKVIGQDSSEIHFKVKMTTHLKKLKESYCQRQGVPMNSLRFLFEGQRIADNHTPKELGMEEEDVIEVYQEQTGGHMASKGSSVSSVPTKLEVVAATPTSLLISWDAPMSSSSVYYYRITYGETGGNSPVQEFTVPYSGLERIEKNFLITDPRLPDNPIIFASDSFLQLTEYSREEILGRNCRFLQGPETDRATVRKIRDAIDNQTEVTVQLINYTKSGKKFWNLFHLQPMRDQKGDVQYFIGVQLDGTEHVRDAAEREGVMLIKKTAENIDEAAGSSTATISGLSPGVDYTITVYAWGEDSAGYMFMYSPISINYRTC
notes: T0006 lists the V416L plasmid with His6-SUMO; also called OptoMBV416L 1; OptoMBV416L 2
- fold change in binding affinity, light against dark [8]: ~330 fold
- Kd [9]: 63000 nM
- koff [9]: 0.23 s⁻¹
- kon [9]: 4000 M⁻¹ s⁻¹
- Kd [10]: 60000 nM and 42000 nM
- koff [10]: 0.2 s⁻¹ and 0.24 s⁻¹
- kon [10]: 3300 M⁻¹ s⁻¹ and 5800 M⁻¹ s⁻¹
- Kd [11]: 87000 nM
- koff [11]: 0.25 s⁻¹
- kon [11]: 2900 M⁻¹ s⁻¹

B6: OptoMBV416I_G528A_N538E (His6-SUMO tagged) (designed binder)
chain: B5 chain with L180I, G292A, N302E
notes: also called OptoMBTriple
- Kd [12]: > 100000 nM
- koff [12]: 0.1 s⁻¹ and 0.13 s⁻¹
- kon [12]: < 1000 M⁻¹ s⁻¹
- Yield (% of recovery from the resin) [13]: 29.8%
- Yield (% of recovery from the resin) [14]: 39%
- Resin Capacity [15]: 4.5 mg/mL
- Resin Capacity [16]: 5.24 mg/mL

B7: Monobody HA4 (His6-tagged, purified) (designed binder)
chain: HHHHHHSSGENLYFQGHASGSSVSSVPTKLEVVAATPTSLLISWDAPMSSSSVYYYRITYGETGGNSPVQEFTVPYSSSTATISGLSPGVDYTITVYAWGEDSAGYMFMYSPISINYRTC
- Kd [17]: 280 nM
- koff [17]: 0.0145 s⁻¹
- kon [17]: 51000 M⁻¹ s⁻¹
- Kd [18]: 230 nM
- koff [18]: 0.0145 s⁻¹
- kon [18]: 63100 M⁻¹ s⁻¹

B8: OptoMB (His6-tagged, wild-type AsLOV2) (designed binder)
chain: HHHHHHSSGENLYFQGHASGSSVSSVPTKLEVVAATPTSLLISWDAPMSSSSVYYYRITYGETGGNSPVQEFTVPYSGLERIEKNFVITDPRLPDNPIIFASDSFLQLTEYSREEILGRNCRFLQGPETDRATVRKIRDAIDNQTEVTVQLINYTKSGKKFWNLFHLQPMRDQKGDVQYFIGVQLDGTEHVRDAAEREGVMLIKKTAENIDEAAGSSTATISGLSPGVDYTITVYAWGEDSAGYMFMYSPISINYRTC
notes: also called OptoMB 1; OptoMB 2
- Yield (% of recovery from the resin) [13]: 17.8%
- fold change of kon and koff, light against dark [19]: ~20 fold
- koff [20]: 0.21 s⁻¹
- kon [20]: < 1000 M⁻¹ s⁻¹
- Resin Capacity [15]: 5.85 mg/mL
- Kd [10]: > 100000 nM
- koff [10]: 0.21 s⁻¹
- kon [10]: < 1000 M⁻¹ s⁻¹
- Kd [11]: > 100000 nM
- koff [11]: 0.34 s⁻¹
- kon [11]: < 1000 M⁻¹ s⁻¹

B9: OptoMBC450V (designed binder)
chain: B8 chain with C121V
notes: also called OptoMBC450V 1; OptoMBC450V 2
- koff [21]: 0.006 s⁻¹ and 0.013 s⁻¹
- kon [21]: 110000 M⁻¹ s⁻¹ and 56000 M⁻¹ s⁻¹
- Kd [22]: 270 nM
- koff [22]: 0.013 s⁻¹
- kon [22]: 48000 M⁻¹ s⁻¹
- Kd [23]: 190 nM
- koff [23]: 0.01 s⁻¹
- kon [23]: 71000 M⁻¹ s⁻¹

From patent US20200291075A1 (TRUSTEES OF PRINCETON UNIVERSITY, published 2020)
